Source: patent publication EP4682162A1 (Neowise Biotechnology Co., Ltd., dated 2026)

Molecular target: T1, labeled peptide-MHC (HLA-A*02:01) tetramer (…-HLA-A*02:01 tetramer) (human)
T1 construct: Labeled tetramer used for flow cytometry staining; also called pMHC; pMHC tetramer
Assay: tetramer staining of sorted T cell clones, flow cytometry

Row | binding result | Binder
1 | binds | nwTCR-2916 (TCR, V domains shown, TCR on T cells) V domain 1: GQQLNQSPQSMFIQEGEDVSMNCTSSSIFNTWLWYKQDPGEGPVLLIALYKAGELTSNGRLTAQFGITRKDSFLNISASIPSDVGIYFCAGQDDGGSQGNLIFGKGTKLSVKP V domain 2: DSGVTQTPKHLITATGQRVTLRCSPRSGDLSVYWYQQSLDQGLQFLIQYYNGEERAKGNILERFSAQQFPDLHSELNLSSLELGDSALYFCASSPWTSGGDGELFFGEGSRLTVLE
2 | binds | nwTCR-2720 (TCR, V domains shown, TCR on T cells) V domain 1: SQQGEEDPQALSIQEGENATMNCSYKTSINNLQWYRQNSGRGLVHLILIRSNEREKHSGRLRVTLDTSKKSSSLLITASRAADTASYFCATDLSGAGSYQLTFGKGTKLSVIP V domain 2: EAQVTQNPRYLITVTGKKLTVTCSQNMNHEYMSWYRQDPGLGLRQIYYSMNVEVTDKGDVPEGYKVSRKEKRNFPLILESPSPNQTSLYFCASSLGTGFGELFFGEGSRLTVLE
3 | binds | nwTCR-2719 (TCR, V domains shown, TCR on T cells) V domain 1: GIQVEQSPPDLILQEGANSTLRCNFSDSVNNLQWFHQNPWGQLINLFYIPSGTKQNGRLSATTVATERYSLLYISSSQTTDSGVYFCAVLAPGTYKYIFGTGTRLKVLA V domain 2: EAQVTQNPRYLITVTGKKLTVTCSQNMNHEYMSWYRQDPGLGLRQIYYSMNVEVTDKGDVPEGYKVSRKEKRNFPLILESPSPNQTSLYFCASSWGSGYEQYFGPGTRLTVTE
4 | binds | nwTCR-2793 (TCR, V domains shown, TCR on T cells) V domain 1: QKEVEQNSGPLSVPEGAIASLNCTYSDRVSQSFFWYRQYSGKSPELIMSIYSNGDKEDGRFTAQLNKASQYVSLLIRDSQPSDSATYLCAVVSSNDYKLSFGAGTTVTVRA V domain 2: EAQVTQNPRYLITVTGKKLTVTCSQNMNHEYMSWYRQDPGLGLRQIYYSMNVEVTDKGDVPEGYKVSRKEKRNFPLILESPSPNQTSLYFCASSPGTIGELFFGEGSRLTVLE
5 | binds | nwTCR-2915 (TCR, V domains shown, TCR on T cells) V domain 1: GESVGLHLPTLSVQEGDNSIINCAYSNSASDYFIWYKQESGKGPQFIIDIRSNMDKRQGQRVTVLLNKTVKHLSLQIAATQPGDSAVYFCAESYGQKLLFARGTMLKVDL V domain 2: EAQVTQNPRYLITVTGKKLTVTCSQNMNHEYMSWYRQDPGLGLRQIYYSMNVEVTDKGDVPEGYKVSRKEKRNFPLILESPSPNQTSLYFCASSFWSAGELFFGEGSRLTVLE
6 | binds | nwTCR-2718 (TCR, V domains shown, TCR on T cells) V domain 1: GQQLNQSPQSMFIQEGEDVSMNCTSSSIFNTWLWYKQDPGEGPVLLIALYKAGELTSNGRLTAQFGITRKDSFLNISASIPSDVGIYFCAGFSQGGSEKLVFGKGTKLTVNP V domain 2: DSGVTQTPKHLITATGQRVTLRCSPRSGDLSVYWYQQSLDQGLQFLIQYYNGEERAKGNILERFSAQQFPDLHSELNLSSLELGDSALYFCASSPWTAGGNTIYFGEGSWLTVVE
7 | binds | nwTCR-2583 (TCR, V domains shown, TCR on T cells) V domain 1: GQSLEQPSEVTAVEGAIVQINCTYQTSGFYGLSWYQQHDGGAPTFLSYNALDGLEETGRFSSFLSRSDSYGYLLLQELQMKDSASYFCALGTEDKIIFGKGTRLHILP V domain 2: EAQVTQNPRYLITVTGKKLTVTCSQNMNHEYMSWYRQDPGLGLRQIYYSMNVEVTDKGDVPEGYKVSRKEKRNFPLILESPSPNQTSLYFCASRISLGANYGYTFGSGTRLTVVE
8 | binds | nwTCR-2555 (TCR, V domains shown, TCR on T cells) V domain 1: AQSVSQHNHHVILSEAASLELGCNYSYGGTVNLFWYVQYPGQHLQLLLKYFSGDPLVKGIKGFEAEFIKSKFSFNLRKPSVQWSDTAEYFCAVKMDSSYKLIFGSGTRLLVRP V domain 2: DGGITQSPKYLFRKEGQNVTLSCEQNLNHDAMYWYRQDPGQGLRLIYYSQIVNDFQKGDIAEGYSVSREKKESFPLTVTSAQKNPTAFYLCASLGLNYNEQFFGPGTRLTVLE
